# Results: article PMC3778281
# Target: F8–TNF (murine)
# Assay: SEC
substance,measurement,value
F8–TNF,stoichiometry N,3
